Molecular target: T1, wild-type interferon regulatory factor 1 (wtIRF1) (human, UniProt P10914 1-325)
T1 sequence (looked up): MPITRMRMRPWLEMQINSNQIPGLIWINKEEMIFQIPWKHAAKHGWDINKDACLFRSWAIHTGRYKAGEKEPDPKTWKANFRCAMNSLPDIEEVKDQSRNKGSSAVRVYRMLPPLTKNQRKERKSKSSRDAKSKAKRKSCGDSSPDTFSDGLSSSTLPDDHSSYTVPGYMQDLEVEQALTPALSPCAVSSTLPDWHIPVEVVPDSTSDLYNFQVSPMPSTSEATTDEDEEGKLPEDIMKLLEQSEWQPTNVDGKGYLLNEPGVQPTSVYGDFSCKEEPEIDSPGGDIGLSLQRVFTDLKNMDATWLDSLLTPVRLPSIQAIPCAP
Test: cell-based or functional assay

B1: Ollas-tagged wild-type speckle type BTB/POZ protein (wtSPOP) (natural protein, UniProt O43791 1-374, looked up)
chain: MSRVPSPPPPAEMSSGPVAESWCYTQIKVVKFSYMWTINNFSFCREEMGEVIKSSTFSSGANDKLKWCLRVNPKGLDEESKDYLSLYLLLVSCPKSEVRAKFKFSILNAKGEETKAMESQRAYRFVQGKDWGFKKFIRRDFLLDEANGLLPDDKLTLFCEVSVVQDSVNISGQNTMNMVKVPECRLADELGGLWENSRFTDCCLCVAGQEFQAHKAILAARSPVFSAMFEHEMEESKKNRVEINDVEPEVFKEMMCFIYTGKAPNLDKMADDLLAAADKYALERLKVMCEDALCSNLSVENAAEILILADLHSADQLKTQAVDFINYHASDVLETSGWKSMVVSHPHLVAEAYRSLASAQCPFLGPPRKRLKQS
With B1 the “fold decrease in IRF1-driven ISRE luciferase reporter activity in HEK-293T cells with SPOP co-expression (dual luciferase assay)” value was 11 fold.

Reference: article PMC10491434, “SPOP targets the immune transcription factor IRF1 for proteasomal degradation” (eLife, 2023)
